Legend:
recombinant Bri2(90-236) = target: T1, recombinant Bri2(90-236) (Homo sapiens, UniProt Q9Y287); assay: ESI-MS binding of peptides to recombinant Bri2(90-236) (substrate specificity); conditions: 20 μM Bri2(90-236); for complex formation of peptide with recombinant Bri2(90-236): 50 μM peptide (peptide/protein ratio 2.5)
T1 construct: His6 (N, cleaved yes); thioredoxin (N, cleaved yes); made in house; host or cells: E. coli Origami(DE3)pLysS, pET-32c vector
T1 sequence (Q9Y287 90-236): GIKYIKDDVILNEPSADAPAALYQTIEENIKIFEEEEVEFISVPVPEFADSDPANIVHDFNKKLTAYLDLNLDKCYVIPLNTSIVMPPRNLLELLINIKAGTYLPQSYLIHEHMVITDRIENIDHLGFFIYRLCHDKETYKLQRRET
Experimental: Prior to electrospray ionization mass spectrometry (ESI-MS), purified Bri2(90-236) (SEQ ID NO: 2) was rebuffered into 10 mM ammonium acetate, pH 7.0, using spin columns with a 3 kDa cut-off limit (Nanosep, Pall Corp., East Hills, N.Y., USA). Protein and peptides were mixed at 22° C. directly before analysis at a final protein concentration of 20 μM and a final peptide concentration of 50 μM. Data was acquired using a QTOF Ultima API mass spectrometer (Waters, Milford, Mass., USA) equipped with a Z-spray source operated in the positive-ion mode. Samples were introduced via nano-electrospray using metal-plated borosilicate glass capillary needles (Proxeon, Denmark). The source temperature was 80° C., the capillary voltage 1.7 kV, and the cone and RF lens 1 potentials were 100 and 38 V, respectively. The mass spectrometer was operated in single-reflector mode at a resolution of 10 000 (full width half maximum definition), and the mass scale was calibrated using myoglobin. Scans were acquired at a rate of 1 scan per 2 sec between 500 and 4000 m/z. The collision gas was argon at 5.2×10^−5 mbar. Mass spectra were smoothed using the Waters MassLynx software.
All peptides, with the exception of KFFEYNGKKFFE (SEQ ID NO: 15), ABri23 (SEQ ID NO: 4) and Aβ1-40 (SEQ ID NO: 11), were purchased from Thermo Electron (Darmstadt, Germany). KFFEYNGKKFFE was purchased from Interactiva (Ulm, Germany) and Aβ1-40 and disulfide-linked ABri23 were from Bachem (Bubendorf, Switzerland).
Peptides, except for KFFEYNGKKFFE, ABri23 and Aβ1-40, were acetylated at the N-terminus and amidated at the C-terminus. The compositions of all peptides were verified by ESI-MS and amino acid analysis. Peptide YYY was dissolved to a final concentration of 10 mM in 30% acetonitrile. VVV, FFF and LLL were dissolved in 50% isopropanol to a final concentration of 10 mM. KKK, GGG and AAA were dissolved in water to a final concentration of 10 mM, while KFFEYNGKKFFE and ABri23 were dissolved in water to final concentrations of 5.6 mM and 1 mM, respectively. All peptide samples were stored at −20° C., except for Aβ1-40 which was dissolved to a final concentration of 1 mM in water directly prior to analysis.
To further investigate the substrate specificity of Bri2(90-236), homotripeptides with aromatic (YYY, FFF), hydrophobic (VVV, LLL), charged (KKK) or small uncharged (AAA, GGG) side-chains, were employed to study binding, under maintained water solubility. […] The peptide sequences are denoted in each spectrum. Symbols * and ** indicate peaks corresponding to recombinant Bri2(90-236) with one or two peptide ligands, respectively. […] Bri2(90-236) also binds the peptide KFFEYNGKKFFE (FIG. 6).

Aβ1-40 = target: T2, Aβ1-40 (Homo sapiens, UniProt P05067); assay type: biochemical; conditions: 0.1 and 1 molar equivalents to Aβ1-40; compared to the same amounts of Bri2(90-236); data not shown
T2 construct: made in house; host or cells: E. coli
From the text: (§1) Aβ1-40 (SEQ ID NO: 11) and Aβ1-42 (SEQ ID NO: 12) were expressed in E. coli from synthetic genes and purified in batch format using ion exchange and size exclusion steps as described in Walsh et al., FEBS J. 2009, 276, 1266-1281, which results in highly pure monomeric peptide. Purified peptide was divided into 20-30 identical aliquots and frozen. Monomer was then isolated by gel filtration of an aliquot of purified peptide just prior to setting up each of the experiments listed below to remove traces of aggregate formed during freezing and thawing and to exchange buffer to the one used in the respective experiment. Monomer was collected in low-bind Ep-tubes ([…]) on ice, and the concentration was determined by absorbance or amino acid analysis after acid hydrolysis. The monomer was used as is or diluted to the desired concentration for the respective experiment. Bri2(90-236) (SEQ ID NO: 2) was expressed and purified as described in Example 1. Aggregation kinetics were studied by recording the Thioflavin T (ThT) fluorescence intensity as a function of time in a plate reader (FluoStar Omega from BMG Labtech, Offenberg, Germany). The fluorescence was recorded using bottom optics in half-area 96-well PEG-coated black polystyrene plates with clear bottom (Corning 3881) using 440 nm excitation filter and 480 nm emission filter. Aβ monomer was isolated by gel filtration as above in 20 mM Na-phosphate, 200 μM EDTA, 0.02% NaN3 (at pH 7.4 in the case of Aβ1-40 and at pH 8.0 for Aβ1-42) and diluted to 6 or 8 μM in the case of Aβ1-40 and 3 μM in the case of Aβ1-42 in the same buffer and supplemented with 20 μM ThT from a 2 mM stock. To each well in the 96-well plate was first added either 10 μl buffer (20 mM Tris/HCl pH 7.4) or 10 μl of Bri2(90-236) protein or control protein at ten times the desired final concentration in 20 mM Tris/HCl pH 7.4. To each well was then added 90 μl of the ice-cold Aβ monomer solution, and the plate was immediately placed in the plate reader at 37° C., with fluorescence read every 6 minutes with continuous shaking at 100 rpm between readings. Aβ1-40 was studied alone or with Bri2(90-236) at a concentration ranging from 60 nM to 6 μM. Aβ1-42 was studied alone or with Bri2(90-236) at a concentration ranging from 20 nM to 6 μM.

Aβ1-42 = target: T3, Aβ1-42 (Homo sapiens, UniProt P05067); assay: ThT aggregation kinetics of Aβ1-42 (Example 4); assay type: biochemical; conditions: 0.1 and 1 molar equivalents to Aβ1-42; compared to the same amounts of Bri2(90-236); data not shown
T3 construct: made in house; host or cells: E. coli
From the text: as §1, with “Aβ1-40 was studied alone or with Bri2(90-236) at a concentration ranging from 60 nM to 6 μM. Aβ1-42 was studied alone or with Bri2(90-236) at a concentration ranging from 20 nM to 6 μM.” left out

T2 sequence (P05067 672-711): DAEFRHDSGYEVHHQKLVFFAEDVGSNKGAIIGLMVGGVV
T3 sequence (P05067 672-713): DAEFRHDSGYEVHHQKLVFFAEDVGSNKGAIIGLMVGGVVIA

Row | Substance | complex formation of peptide with recombinant Bri2(90-236) (recombinant Bri2(90-236)) | also measured
1 | YYY: homotripeptide with aromatic side-chains (Ac-Tyr-Tyr-Tyr-NH2) | found to form complexes | number of peptide molecules per Bri2(90-236) in complexes (recombinant Bri2(90-236); 50 μM peptide): one or two
2 | cystatin [reference compound] | – | effects of control protein on Aβ1-40 aggregation (ThT assay) (Aβ1-40): small; effects of control protein on Aβ1-42 aggregation (ThT assay) (Aβ1-42): small
3 | VVV: homotripeptide with hydrophobic side-chains (Ac-Val-Val-Val-NH2) | No interactions were observed | –
4 | AAA: homotripeptide with small uncharged side-chains | No interactions were observed | –
5 | KKK: homotripeptide with charged side-chains (Ac-Lys-Lys-Lys-NH2) | No interactions were observed | –
6 | GGG: homotripeptide with small uncharged side-chains (Ac-Gly-Gly-Gly-NH2) | No interactions were observed | –
7 | FFF: homotripeptide with aromatic side-chains (Ac-Phe-Phe-Phe-NH2) | No interactions were observed | –
8 | KFFEYNGKKFFE | found to form complexes | –
9 | LLL: homotripeptide with hydrophobic side-chains (Ac-Leu-Leu-Leu-NH2) | No interactions were observed | –

From patent US8785391B2, “Compound and method for treatment of alzheimer's disease and familial dementia” (Alphabeta AB, priority 2010, dated 2014)
